Data on one molecule can be found in patent US20190292221A1 (published 2019).

In assay [1] the target is T1, Human EGFR-his (human, UniProt P00533 25-645).
T1 construct: Soluble his-tagged antigen injected over captured BEAT®3; also called hsEGFR; not shown: his tag
In words: SPR, BEAT®3 captured on Protein G chip, EGFR-his injected; sample after high pH, 0 h. On the technique in general: Surface plasmon resonance follows binding to a sensor surface in real time, without labels.

Assay [2] concerns the target T1, Human EGFR-his. The assay can be described thus: SPR, BEAT®3 captured on Protein G chip, EGFR-his injected; sample after high pH, 2 h.
Assay [3] addresses T1, Human EGFR-his. The assay can be described thus: SPR, BEAT®3 captured on Protein G chip, EGFR-his injected; sample after high pH, 4 h.
Assay [4] deals with T1, Human EGFR-his. In words: SPR, BEAT®3 captured on Protein G chip, EGFR-his injected; sample after high pH, 24 h.
The target in assay [5] is T1, Human EGFR-his. In words: SPR, BEAT®3 captured on Protein G chip, EGFR-his injected; average of 4 replicates of Reference #1 and #2.
Description: The second assay, aims to determine the binding affinity to Human EGFR-his antigen. It was performed with a Serie S Sensor Chip Protein G (GE Healthcare).

B1: BEAT®3 (bispecific antibody, human IgG1, kappa, L234A L235A)
chain 1: EVQLVESGGGLVQPGGSLRLSCAASGFTFNTYAMNWVRQAPGKGLEWVARIRSKYNNYATYYADSVKSRFTISRDDSKNTLYLQMNSLRAEDTAVYYCVRHGNFGNSYVSYFAYWGQGTTVTVSSGGGGSGGGGSGGGGSEIVVTQSPATLSVSPGERATLSCRSSTGAVTESNYANWVQEKPGQAFRGLIGGANKRAPGVPARFSGSLSGDEATLTISSLQSEDFAVYYCALFYSNTWVFGQGTKLEIKGGGGTQVQLQESGPGLVKPSETLSLTCTVSGGSVSSGDYYWTWIRQSPGKGLEWIGHIYYSGNTNYNPSLKSRLTISIDTSKTQFSLKLSSVTAADTAIYYCVRDRVTGAFDIWGQGTMVTVSSASTKGPSVFPLAPSSKSTSGGTAALGCLVKDYFPEPVTVSWNSGALTSGVHTFPAVLQSSGLYSLSSVVTVPSSSLGTQTYICNVNHKPSNTKVDKKVEPKSCDKTHTCPPCPAPEAAGGPSVFLFPPKPKDTLMISRTPEVTCVVVDVSHEDPEVQFKWYVDGVEVHNAKTKPREEQYNSTFRVVSVLTVLHQDWLNGKEYKCKVSNKALPAPIEKTISKTKGQPREPAVYTLPPSREEMTKNQVKLVCLVTGFYPSDIAVEWESSGQPENNYYTTPPMLDSDGSFSLVSWLNVDKSRWQQGNIFSCSVMHEALHNRFTQKSLSLSPG
chain 2: not shown
chain 3: DKTHTCPPCPAPEAAGGPSVFLFPPKPKDTLMISRTPEVTCVVVDVSHEDPEVKFNWYVDGVEVHNAKTKPREEQYNSTYRVVSVLTVLHQDWLNGKEYKCKVSNKALPAPIEKTISKAKGQPREPEVATFPPSRDELTKNQVTLVCLVTGFYPSDIAVEWESNGQPENNYKTDPPLLESDGSFALSSRLRVDKSRWQQGNVFSCSVMHEALHNHYTQKSLSLSPG
notes: also called third BEAT antibody
As for B1, the “Average rel KD” value is 0.98 relative to reference in the assay with Human EGFR-his [1]; 1.02 relative to reference with Human EGFR-his [2]; 1.09 relative to reference with Human EGFR-his [3]; 1.15 relative to reference with Human EGFR-his [4]; 1 relative to reference with Human EGFR-his [5]. Besides, the “Relative KD R1” value with Human EGFR-his [1] was 0.988 relative to reference; with Human EGFR-his [2] it was 1.02 relative to reference; with Human EGFR-his [3], 1.11 relative to reference; in the assay with Human EGFR-his [4], 1.17 relative to reference.
